Experimental data as given in patent EP4818204A1 (Nanjing Leads Biolabs Co., Ltd., dated 2026).
Where two headings read alike, the source gives them in different places.

What was measured:
Assay in all cases: ELISA, coated protein, antibody at 4 µg/mL
[1] = biological target: T1, human GDF1 protein (human, UniProt P27539 254-372, limits assumed)
T1 construct: Bought
T1 sequence (looked up): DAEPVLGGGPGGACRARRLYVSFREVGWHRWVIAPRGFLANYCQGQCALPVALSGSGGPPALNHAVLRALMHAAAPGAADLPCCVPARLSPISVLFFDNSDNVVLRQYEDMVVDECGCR

[2] = biological target: T2, human GDF2 protein (human, UniProt Q9UK05 320-429)
T2 construct: Bought
T2 sequence (looked up): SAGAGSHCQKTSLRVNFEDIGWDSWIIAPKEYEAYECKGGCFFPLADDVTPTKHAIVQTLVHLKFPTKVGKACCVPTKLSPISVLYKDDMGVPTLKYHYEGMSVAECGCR

[3] = biological target: T3, human GDF3 protein (human, UniProt Q9NR23 251-364, limits assumed)
T3 construct: Bought
T3 sequence (looked up): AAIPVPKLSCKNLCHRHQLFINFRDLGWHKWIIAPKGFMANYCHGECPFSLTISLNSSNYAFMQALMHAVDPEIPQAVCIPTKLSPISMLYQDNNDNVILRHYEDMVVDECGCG

[4] = biological target: T4, human BMP4 protein (human, UniProt P12644 293-408)
T4 construct: Bought
T4 sequence (looked up): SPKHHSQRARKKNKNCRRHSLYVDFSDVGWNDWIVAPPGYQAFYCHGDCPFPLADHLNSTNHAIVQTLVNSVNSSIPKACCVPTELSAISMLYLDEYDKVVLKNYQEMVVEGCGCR

[5] = biological target: T5, human GDF11 protein (human, UniProt O95390 299-407)
T5 construct: Bought
T5 sequence (looked up): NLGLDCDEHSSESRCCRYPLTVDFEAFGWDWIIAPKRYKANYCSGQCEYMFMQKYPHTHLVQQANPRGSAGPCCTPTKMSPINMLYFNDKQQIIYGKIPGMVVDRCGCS

[6] = biological target: T6, human GDNF protein (human, UniProt P39905 78-211)
T6 construct: Bought
T6 sequence (looked up): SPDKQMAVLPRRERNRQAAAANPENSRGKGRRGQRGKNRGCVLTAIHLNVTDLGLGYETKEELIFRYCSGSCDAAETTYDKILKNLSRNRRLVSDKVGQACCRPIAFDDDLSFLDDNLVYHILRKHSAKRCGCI

[7] = biological target: T7, human TGFβ1 protein (human, UniProt P01137 279-390)
T7 construct: Bought
T7 sequence (P01137 279-390 limits assumed): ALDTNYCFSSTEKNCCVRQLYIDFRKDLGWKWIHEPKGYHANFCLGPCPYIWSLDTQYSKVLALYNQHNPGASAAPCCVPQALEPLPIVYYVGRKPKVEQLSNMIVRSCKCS

[8] = biological target: T8, human GFRα1 protein (human, UniProt P56159 25-429, limits assumed)
T8 construct: Bought
T8 sequence (looked up): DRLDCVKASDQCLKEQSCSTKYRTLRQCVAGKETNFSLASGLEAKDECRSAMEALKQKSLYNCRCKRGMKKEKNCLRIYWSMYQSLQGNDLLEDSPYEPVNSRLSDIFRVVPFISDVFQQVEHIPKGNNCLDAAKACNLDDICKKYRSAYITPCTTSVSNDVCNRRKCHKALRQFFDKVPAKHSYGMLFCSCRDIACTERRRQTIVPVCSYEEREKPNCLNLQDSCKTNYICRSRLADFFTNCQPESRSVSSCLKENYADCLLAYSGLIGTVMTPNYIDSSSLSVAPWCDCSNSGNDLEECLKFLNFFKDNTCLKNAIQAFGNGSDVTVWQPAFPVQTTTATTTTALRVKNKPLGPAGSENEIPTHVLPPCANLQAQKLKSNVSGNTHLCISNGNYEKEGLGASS

[9] = biological target: T9, human BMP2 protein (human, UniProt P12643 283-396)
T9 construct: Bought
T9 sequence (P12643 283-396 limits assumed): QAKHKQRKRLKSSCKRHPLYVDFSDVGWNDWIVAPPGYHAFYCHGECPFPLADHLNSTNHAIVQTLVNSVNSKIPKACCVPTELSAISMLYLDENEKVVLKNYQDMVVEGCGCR

[10] = biological target: T10, human Activin A protein (human, UniProt P08476 311-426)
T10 construct: Bought; Activin A is by nature a dimer of inhibin beta A chains
T10 sequence (looked up): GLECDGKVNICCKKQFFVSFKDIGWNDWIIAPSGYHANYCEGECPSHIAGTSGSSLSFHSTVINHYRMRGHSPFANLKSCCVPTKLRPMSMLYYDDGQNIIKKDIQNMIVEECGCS

[11] = biological target: T11, human Activin B protein (human, UniProt P09529 293-407)
T11 construct: Bought; Activin B is by nature a dimer of inhibin beta B chains
T11 sequence (looked up): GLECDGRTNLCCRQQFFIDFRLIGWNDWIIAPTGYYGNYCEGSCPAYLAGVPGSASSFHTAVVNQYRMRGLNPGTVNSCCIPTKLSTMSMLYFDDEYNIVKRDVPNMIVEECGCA

[12] = biological target: T12, Human GDF15 protein (human, UniProt Q99988 197-308)
T12 construct: Natural GDF15 is said to be a disulfide-linked homodimer; also called Human-GDF15-his
T12 sequence: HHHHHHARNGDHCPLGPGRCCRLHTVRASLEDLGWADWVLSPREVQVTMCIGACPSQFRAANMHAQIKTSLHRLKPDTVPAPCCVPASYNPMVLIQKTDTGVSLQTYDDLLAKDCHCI

[13] = biological target: human AMH protein (human) (UniProt P03971)
[14] = biological target: human GDF8 protein (human) (UniProt O14793)
[15] = biological target: T1, human GDF1 protein; remark: listed apart in the source
[16] = biological target: T2, human GDF2 protein; remark: listed apart in the source
[17] = biological target: T3, human GDF3 protein; remark: listed apart in the source
[18] = biological target: T4, human BMP4 protein; remark: listed apart in the source
[19] = biological target: T5, human GDF11 protein; remark: listed apart in the source
[20] = biological target: T6, human GDNF protein; remark: listed apart in the source
[21] = biological target: T7, human TGFβ1 protein; remark: listed apart in the source
[22] = biological target: T8, human GFRα1 protein; remark: listed apart in the source
[23] = biological target: T9, human BMP2 protein; remark: listed apart in the source
[24] = biological target: T10, human Activin A protein; remark: listed apart in the source
[25] = biological target: T11, human Activin B protein; remark: listed apart in the source
[26] = biological target: T12, Human GDF15 protein; remark: listed apart in the source
[27] = biological target: human AMH protein (human) (UniProt P03971); remark: listed apart in the source
[28] = biological target: human GDF8 protein (human) (UniProt O14793); remark: listed apart in the source

Substance: IgG control (Sino Biological, Cat. No.: HG1K) (antibody)
- OD value (OD 450 nm-620 nm) [1]: 0.0416
- OD value (OD 450 nm-620 nm) [2]: 0.0622
- OD value (OD 450 nm-620 nm) [3]: 0.04
- OD value (OD 450 nm-620 nm) [4]: 0.0439
- OD value (OD 450 nm-620 nm) [5]: 0.038
- OD value (OD 450 nm-620 nm) [6]: 0.036
- OD value (OD 450 nm-620 nm) [7]: 0.0376
- OD value (OD 450 nm-620 nm) [8]: 0.125
- OD value (OD 450 nm-620 nm) [9]: 0.0463
- OD value (OD 450 nm-620 nm) [10]: 0.0524
- OD value (OD 450 nm-620 nm) [11]: 0.168
- OD value (OD 450 nm-620 nm) [12]: 0.0386
- OD value (OD 450 nm-620 nm) [13]: 0.0465
- OD value (OD 450 nm-620 nm) [14]: 0.0351
- OD value (OD 450 nm-620 nm) [15]: 0.101
- OD value (OD 450 nm-620 nm) [16]: 0.0444
- OD value (OD 450 nm-620 nm) [17]: 0.0556
- OD value (OD 450 nm-620 nm) [18]: 0.0464
- OD value (OD 450 nm-620 nm) [19]: 0.0659
- OD value (OD 450 nm-620 nm) [20]: 0.0493
- OD value (OD 450 nm-620 nm) [21]: 0.111
- OD value (OD 450 nm-620 nm) [22]: 0.0807
- OD value (OD 450 nm-620 nm) [23]: 0.055
- OD value (OD 450 nm-620 nm) [24]: 0.0474
- OD value (OD 450 nm-620 nm) [25]: 0.082
- OD value (OD 450 nm-620 nm) [26]: 0.043
- OD value (OD 450 nm-620 nm) [27]: 0.0569
- OD value (OD 450 nm-620 nm) [28]: 0.0485
